Assay [1] concerns the target T1, HCV E1E2 complex, isolate H77 (genotype 1a) (hepatitis C virus genotype 1a, isolate …, UniProt P27958 192-383; P27958 384-746). Put plainly: ELISA, mAb with E1E2 (H77), then CD81-LEL plate.
The target of assay [2] is T1, HCV E1E2 complex, isolate H77 (genotype …). The assay is described as follows: apparent affinity: half-maximal binding, ELISA on lectin-captured E1E2.
In assay [3] the target is HCV E1E2 complex, isolate HCV-1 (genotype 1a), vaccinia-expressed (hepatitis C virus genotype 1a, isolate …, UniProt P26664 192-383; P26664 384-746). The description is as above.
Assay [4] addresses T2, HCV E1E2 complex, isolate H77 (genotype 1a) (hepatitis C virus genotype 1a, isolate …, UniProt P27958 192-383; P27958 384-746).
T2 construct: also called E1E2 (H77); Folded E1E2
The assay is described as follows: competition ELISA on lectin-captured H77 E1E2; competitor: Fab V1.

For assay [5], the target named is T2, HCV E1E2 complex, isolate H77 (genotype …). The assay is described as follows: competition ELISA on lectin-captured H77 E1E2; competitor: Fab S1.
For assay [6] the target is unchanged. The assay is described as follows: competition ELISA on lectin-captured H77 E1E2; competitor: Fab Q1.
The target is the same in assay [7]. Put plainly: competition ELISA on lectin-captured H77 E1E2; competitor: Fab P5.
Assay [8] has the same target. Put plainly: competition ELISA on lectin-captured H77 E1E2; competitor: Fab P6.
For assay [9] the target is unchanged. Put plainly: competition ELISA on lectin-captured H77 E1E2; competitor: Fab Q2.
For assay [10] the target is unchanged. The assay is described as follows: competition ELISA on lectin-captured H77 E1E2; competitor: Fab R1.
For assay [11] the target is unchanged. The assay is described as follows: competition ELISA on lectin-captured H77 E1E2; competitor: Fab T1.
The target is the same in assay [12]. The assay is described as follows: competition ELISA on lectin-captured H77 E1E2; competitor: Fab U1.
Assay [13] has as its target T1, HCV E1E2 complex, isolate H77 (genotype …). The assay is described as follows: Fab screen after panning on antibody-masked E1E2 (H77).

B1: MAb AR3C (IgG1 from Fab H3) (antibody, V domains shown)
VH: LEQSGAEVKKPGSSVKVSCETSGGTLDNYALNWVRQAPGQGLEWIGGVVPLFGTTRNAQKFQGRVTISDDKSTGTGHMELRSLRSEDTAVYYCVRSVTPRYCGGGFCYGEFDYWGQGTLVTVSS
VL: ELTQSPATLSVSPGERATLSCRASQSVSSNLAWYQQKPGQAPRLLIYGASTRATGIPARFSGSGSGTEFTLTVSRLEPEDSAVYFCQQYYRSPLTFGGGTKVEIKR
B1 came in with an IC50 in assay [1] of 2 nM. Besides, the half-maximal effective concentration (EC50) in assay [2] came to 2.3 nM; in assay [3] it was 1.4 nM.

B2: MAb AR3C (antibody, V domains shown)
VH: B1 VH
VL: B1 VL
notes: also called IgG1 of Fab H3
On to B2, for which the residual binding turned out to be 82% in assay [4]; 149% in [5]; 97% in [6]; 117% in assay [7]; 103% in [8]; 75% in assay [9]. The residual binding in assay [10] turned out to be 163%; in assay [11], 105%.

B3: MAb AR1A (IgG1 from Fab B2) (antibody, V domains shown)
VH: LEQSGAEVKKPGSSVKVSCRASGSPYSSYTITWVRQAPGQGLEWMGGIILMTGKANYAQKFQGRVTITADRATATAYMEMSSLTSDDTAIYYCARDPYVYAGDDVRSLSRWGQGTPVIVSS
VL: not shown
notes: also called ARIA
With B3, the midpoint of inhibition in assay [1], the IC50, lay at 5.7 nM. The figures for the 50% effective concentration (EC50) in assay [2] and in assay [3] were 3.8 nM and 2.6 nM, respectively.

B4: MAb AR1A (antibody, V domains shown)
VH: B3 VH
VL: not shown
notes: also called IgG1 of Fab B2
B4: the residual binding in [4] is 58%; in [12], 55%; in assay [5] it was 69%; in [6], 79%; in assay [7], 87%; in assay [8], 82%. Further, the residual binding came to 78% in [9], 100% in [10] and 80% in assay [11].

B5: Fab L7 (Fab, V domains shown)
VH: VQLLEQSGAEVKKPGSSVKVTCKVPGDTFRSYVITWVRQAPGQGLEWLGGILPFFGTTNLAQKFQGRVTLTADESTTTAYMELSSLRAEDTAVYYCAKAGDLAFGGVIAGGVPHLSHFDPWGQGTLVTVSS
VL: ELTQSPGTLSLSPGERATLSCRASQSVPSSYLGWYQQKPGQAPRLLIYGASSRATGIPERFSGSGSGTDFTLTISRLEPEDFAVYYCQQYGSSLSFGQGTKVDLKR
For the molecule B5, the binding result in assay [13] was “binds”.

B6: Fab B7 (Fab, V domains shown)
VH: VQLLEQSGAEVKKPGSSVKVSCRASGSPYSSYTITWVRQAPGQGLEWMGGIILMTGKANYAQKFQGRVTITADRATATAYMEMSSLTSDDTAIYYCARDPYVYAGDDVWSLSRWGQGTPVIVSS
VL: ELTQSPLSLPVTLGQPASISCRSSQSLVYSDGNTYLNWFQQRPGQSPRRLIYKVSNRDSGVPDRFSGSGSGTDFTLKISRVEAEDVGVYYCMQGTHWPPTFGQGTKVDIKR
Regarding B6, the binding result in [13] is listed as “binds”.

B7: MAb AR1B (antibody, V domains shown)
VH: LESGGGLVQPGGSLRLSCEASGYYFSSFAMSWVRQTPGKGLEWVSSIAGGTLGRTSYRDSVKGRFTISRDNSKNTVFLHMNNLRPEDTAVYYCAKDPLLFAGGPNWFDHWGQGTLVTVSS
VL: not shown
notes: also called IgG1 of Fab D1
For B7, the residual binding was determined as 102% in assay [4]; 103% in [12]; 101% in assay [5]; 97% in assay [6]; 95% in assay [7]; 95% in assay [8]. For the same molecule, the values for the residual binding in assay [9], in assay [10] and in assay [11] were 96%, 101% and 102%, respectively.

B8: MAb AR2A (antibody, V domains shown)
VH: LEQSGAEMKKPGASLKVSCKTSGYTFDDYGVTWVRQAPGQGLEWMGWISAYSGNTFYARKFQGRVTMTTDPSTRTAYMELRSLRSDDTAVYFCARDRGLAINGVVFPYFGLDVWGQGTTVTVSS
VL: ELTQSPVSLPVTPGEPASISCRSSQSLLHSNGNHYLDWYLQKPGQSPQLLMYLGSNRASGVPDRFSGSGSGTDFTLKISRVEAEDVGVYYCMQGLQTPWTFGQGTKVEIKR
notes: also called IgG1 of Fab G
For the molecule B8, the residual binding in assay [4] stood at 79%; in assay [12], 132%; in [5], 79%; in [6] it was 75%; in [7], 73%; in assay [8], 76%. Moreover, the residual binding was 72% in [9], 75% in [10] and 93% in assay [11].

The values are drawn from patent publication US20110311550A1 (Scripps Research, published 2011).
